Reference: article PMC3949604 (Biochemical pharmacology, 2014)
One block for each binder: values may come before it.

Biological target: baculovirus expressed human Arnt (aryl hydrocarbon receptor nuclear translocator) (human, UniProt P27540 1-789)
Test: co-IP

Chain of baculovirus expressed human Arnt (aryl hydrocarbon receptor nuclear translocator) (P27540 whole entry): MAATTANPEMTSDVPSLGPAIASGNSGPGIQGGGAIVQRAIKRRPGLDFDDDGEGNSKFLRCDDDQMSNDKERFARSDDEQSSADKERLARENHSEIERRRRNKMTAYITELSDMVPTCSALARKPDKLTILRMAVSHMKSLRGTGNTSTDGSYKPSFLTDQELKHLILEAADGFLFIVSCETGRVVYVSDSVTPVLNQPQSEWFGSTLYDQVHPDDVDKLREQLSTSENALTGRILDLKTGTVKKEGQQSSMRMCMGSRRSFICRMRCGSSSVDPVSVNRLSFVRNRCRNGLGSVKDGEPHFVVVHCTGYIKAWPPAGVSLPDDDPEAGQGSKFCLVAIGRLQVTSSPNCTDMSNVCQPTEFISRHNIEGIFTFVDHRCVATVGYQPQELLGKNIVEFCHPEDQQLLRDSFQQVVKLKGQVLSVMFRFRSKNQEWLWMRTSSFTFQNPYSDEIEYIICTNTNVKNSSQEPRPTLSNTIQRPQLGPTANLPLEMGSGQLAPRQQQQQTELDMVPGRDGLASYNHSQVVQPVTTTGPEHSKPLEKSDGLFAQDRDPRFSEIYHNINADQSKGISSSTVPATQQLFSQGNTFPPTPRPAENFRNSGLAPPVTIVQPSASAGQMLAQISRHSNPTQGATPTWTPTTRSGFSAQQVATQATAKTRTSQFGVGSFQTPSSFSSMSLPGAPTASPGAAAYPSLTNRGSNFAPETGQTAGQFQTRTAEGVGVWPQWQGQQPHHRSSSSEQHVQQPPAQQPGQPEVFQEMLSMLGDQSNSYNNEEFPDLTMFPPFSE

B2: thioredoxin fusion of CΔ553 (human AhR aa 1-295) (domain or fragment, UniProt P35869 1-295, looked up)
chain: MNSSSANITYASRKRRKPVQKTVKPIPAEGIKSNPSKRHRDRLNTELDRLASLLPFPQDVINKLDKLSVLRLSVSYLRAKSFFDVALKSSPTERNGGQDNCRAANFREGLNLQEGEFLLQALNGFVLVVTTDALVFYASSTIQDYLGFQQSDVIHQSVYELIHTEDRAEFQRQLHWALNPSQCTESGQGIEEATGLPQTVVCYNPDQIPPENSPLMERCFICRLRCLLDNSSGFLAMNFQGKLKYLHGQKKKGKDGSILPPQLALFAIATPLQPPSILEIRTKNFIFRTKHKLDF
percent of input co-immunoprecipitated: > 10 % input

B4: thioredoxin fusion of D1 (human AhR aa 84-295) (domain or fragment, UniProt P35869 84-295, looked up)
chain: DVALKSSPTERNGGQDNCRAANFREGLNLQEGEFLLQALNGFVLVVTTDALVFYASSTIQDYLGFQQSDVIHQSVYELIHTEDRAEFQRQLHWALNPSQCTESGQGIEEATGLPQTVVCYNPDQIPPENSPLMERCFICRLRCLLDNSSGFLAMNFQGKLKYLHGQKKKGKDGSILPPQLALFAIATPLQPPSILEIRTKNFIFRTKHKLDF
percent of input co-immunoprecipitated: ~10 % input

More lines, now with the values ahead:

percent of input co-immunoprecipitated: ~10 % input
B1: thioredoxin fusion of D2 (human AhR aa 84-192) (domain or fragment)
chain: not shown

percent of input co-immunoprecipitated: ~10 % input
B3: thioredoxin fusion of D3 (human AhR aa 191-295) (domain or fragment, UniProt P35869 191-295, looked up)
chain: EEATGLPQTVVCYNPDQIPPENSPLMERCFICRLRCLLDNSSGFLAMNFQGKLKYLHGQKKKGKDGSILPPQLALFAIATPLQPPSILEIRTKNFIFRTKHKLDF
